In ChEMBL document CHEMBL2074194:

Tests used:
[1] = substrate: C[N+](C)(C)CCO; assay: cells, lysate or membranes named
[2] = substrate: CC[N+](CC)(CC)CC; assay: cells, lysate or membranes named

B1: Solute carrier family 22 member 2 (Rattus norvegicus) (protein)
chain: MSTVDDILEHIGEFHLFQKQTFFLLALLSGAFTPIYVGIVFLGFTPDHHCWSPGAAKLSQRCGWSQAEELNYTVPGLGPSDEASFLSQCMRYEVDWNQSTLDCVDPLSSLAADRNQLPLGPCEHGWVYNTPGSSIVTEFNLVCAHSWMLDLFQSVVNVGFFIGAMMIGYLADRFGRKFCLLVTILINAISGALMAISPNYAWMLVFRFLQGLVSKAGWLIGYILITEFVGLGYRRMVGICYQIAFTVGLLILAGVAYVIPNWRWLQFAVTLPNFCFLLYFWCIPESPRWLISQNKIVKAMKIIKHIAKKNGKSVPVSLQNLTPDEDAGKKLNPSFLDLVRTPQIRKHTLILMYNWFTSSVLYQGLIMHMGLAGDNIYLDFFYSALVEFPAAFIIILTIDRVGRRYPWAVSNMVAGAACLASVFIPDDLQWLKITIACLGRMGITMAYEMVCLVNAELYPTYIRNLGVLVCSSMCDIGGIITPFLVYRLTDIWMEFPLVVFAVVGLVAGALVLLLPETKGKALPETIEDAENMQRPRKKKEKRIYLQVKQADRPLS
- Km [1]: 2000 µM
- Km [2]: 160 µM
